± gives the standard deviation of the averaged measurements.
B1: library; a variant is named by its letters at N, in order (parent)
chain: GCUGUCACCGAGAAACUGUGAAGUAUAUCUUAAACCUGGGCACUUAAAAGAUAUAUGGAGUUAGUAGUGCAACCUGCUCGGUCUGAUGAGUCCNNNNNNGGACGAAACAGC

How the values were obtained:
cyclic di-GMP [1] = variants of: B1; test: normalized RNA/DNA level without ligand (relative to sTRSVctl = 100) (log10 (% of sTRSVctl)); HEK293T; ligand: cyclic di-GMP (c-di-GMP-II aptamer); higher = less ribozyme self-cleavage, higher mRNA level; conditions: reporter: mCherry (pCS4076), ligand present: no
How it was run: (§1)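 For each 6-well well, 4 µg of library plasmid encoding mCherry-linked ribozyme switches, or eGFP-linked ones in some ligand experiments, was transfected into HEK293T. Any ligand was added 1 h before transfection, and RNA was extracted with EDTA 72 h after it, then reverse-transcribed, amplified, barcoded and sequenced. RNA level was obtained by dividing RNA reads by DNA reads, normalizing to a spiked-in non-cleaving sequence or to the top sequences, then scaling and log-transforming. The top set was 25 sequences, scaling was ×100 with log10, and ≥100 DNA reads were required.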

cyclic di-GMP [2] = variants of: B1; test: normalized RNA/DNA level with ligand (relative to sTRSVctl = 100) (log10 (% of sTRSVctl)); HEK293T; ligand: cyclic di-GMP (c-di-GMP-II aptamer); ligand concentration (+) RNA-Seq: 1 mM; higher = less ribozyme self-cleavage, higher mRNA level; conditions: reporter: mCherry (pCS4076), ligand present: yes
How it was run: as §1

| Variant | normalized RNA/DNA level without ligand (log10) (cyclic di-GMP [1]) | normalized RNA/DNA level with ligand (log10) (cyclic di-GMP [2]) |
| --- | --- | --- |
| GGGUUC | 1.79 ± 0.072 | 1.89 ± 0.12 |
| UGAGGU | 1.61 ± 0.052 | 1.79 ± 0.12 |
| CUACCG | 1.82 ± 0.095 | 1.91 ± 0.098 |
| UGAAAA | 1.73 ± 0.024 | 1.82 ± 0.1 |
| GGCGUG | 1.75 ± 0.017 | 1.86 ± 0.15 |
| CUAUGG | 1.75 ± 0.049 | 1.87 ± 0.09 |
| UCUAUG | 1.7 ± 0.034 | 1.85 ± 0.09 |
| UUUGCC | 1.838 ± 0.011 | 1.89 ± 0.079 |
| UGCCAG | 1.7634 ± 0.0015 | 1.87 ± 0.087 |
| UGGGCA | 1.835 ± 0.0077 | 1.93 ± 0.08 |
| GUGGGC | 1.44 ± 0.058 | 1.68 ± 0.13 |
| CCCUCG | 1.75 ± 0.0059 | 1.91 ± 0.097 |
| UCGCUU | 1.66 ± 0.018 | 1.84 ± 0.11 |
| AGCUGA | 1.58 ± 0.16 | 1.72 ± 0.067 |
| AGCUGG | 1.64 ± 0.043 | 1.81 ± 0.12 |
| CUAGAU | 1.65 ± 0.017 | 1.79 ± 0.069 |
| GUGCGU | 1.69 ± 0.052 | 1.84 ± 0.14 |
| GGCCCU | 1.877 ± 0.012 | 1.94 ± 0.057 |
| CCAUGG | 1.65 ± 0.11 | 1.82 ± 0.02 |

| Variant | normalized RNA/DNA level without ligand (log10) (cyclic di-GMP [1]) | normalized RNA/DNA level with ligand (log10) (cyclic di-GMP [2]) |
| --- | --- | --- |
| CACUUC | 1.71 ± 0.022 | 1.83 ± 0.16 |
| CGCGCU | 1.702 ± 0.016 | 1.83 ± 0.11 |
| ACCAUU | 1.56 ± 0.032 | 1.79 ± 0.1 |
| UUAGAU | 1.7 ± 0.031 | 1.83 ± 0.082 |
| GCCAGC | 1.67 ± 0.064 | 1.83 ± 0.18 |
| CAUAAG | 1.706 ± 0.013 | 1.82 ± 0.1 |
| GGCCAC | 1.7289 ± 0.0006 | 1.88 ± 0.083 |
| ACCUUU | 1.63 ± 0.02 | 1.82 ± 0.081 |
| AAUACC | 1.71 ± 0.031 | 1.86 ± 0.069 |
| GUGUCU | 1.72 ± 0.031 | 1.84 ± 0.13 |
| AGUCCA | 1.663 ± 0.0054 | 1.78 ± 0.049 |
| UUGCCU | 1.746 ± 0.0023 | 1.89 ± 0.091 |
| CUGUUC | 1.64 ± 0.038 | 1.79 ± 0.12 |
| UUGAGU | 1.7248 ± 0.00016 | 1.83 ± 0.15 |
| UCAUGG | 1.77 ± 0.019 | 1.9 ± 0.08 |
| GACUAG | 1.668 ± 0.0042 | 1.79 ± 0.16 |
| GGCACU | 1.73 ± 0.12 | 1.885 ± 0.0081 |
| AUAGCA | 1.71 ± 0.043 | 1.81 ± 0.15 |
| GAUGUC | 1.7082 ± 0.001 | 1.87 ± 0.12 |

| Variant | normalized RNA/DNA level without ligand (log10) (cyclic di-GMP [1]) | normalized RNA/DNA level with ligand (log10) (cyclic di-GMP [2]) |
| --- | --- | --- |
| GGUGAU | 1.67 ± 0.041 | 1.76 ± 0.057 |
| GGUGAA | 1.34 ± 0.076 | 1.61 ± 0.07 |
| GGUGAC | 1.75 ± 0.0083 | 1.86 ± 0.14 |
| CCUGUC | 1.69 ± 0.019 | 1.87 ± 0.089 |
| GGACGC | 1.656 ± 0.0062 | 1.82 ± 0.1 |
| UGUCGC | 1.76 ± 0.049 | 1.85 ± 0.15 |
| UGUCGU | 1.648 ± 0.0058 | 1.84 ± 0.12 |
| CCAUCU | 1.62 ± 0.074 | 1.76 ± 0.16 |
| ACCGCC | 1.74 ± 0.057 | 1.89 ± 0.095 |
| GUUCUC | 1.75 ± 0.035 | 1.88 ± 0.068 |
| CCGUUA | 1.36 ± 0.096 | 1.59 ± 0.15 |
| ACUCCG | 1.746 ± 0.0086 | 1.83 ± 0.15 |
| CUCGAU | 1.72 ± 0.023 | 1.86 ± 0.081 |
| CGACUC | 1.72 ± 0.03 | 1.86 ± 0.14 |
| UCAGGG | 1.64 ± 0.023 | 1.81 ± 0.12 |
| CUUGUC | 1.78 ± 0.048 | 1.89 ± 0.12 |
| ACAGCU | 1.55 ± 0.062 | 1.73 ± 0.12 |
| GUGUGA | 1.41 ± 0.11 | 1.67 ± 0.084 |
| UUUGAG | 1.71 ± 0.038 | 1.83 ± 0.12 |

From the supplement of paper PMC6757056
